In patent publication US20240026407A1, “MODIFICATION OF SAPONINS” (GLAXOSMITHKLINE BIOLOGICALS SA, priority 2020, published 2024):

B1: 1018 (protein)
chain: MFELDRRALLLGLPVTSGALADGASQTSRWRAVGLRTAMRRQPLGIDDPQPMLSWRLEGPAGAVQSAYQIMVASTAEKLHAGVADLWDSGRVKSSESVGVRYGGAPLKPRQRCVWRVRAWDAAGRASDWSPPATWEMGLIDQSEWIGDWLAVEAADERDDRVAGVRWVETQTPKPHETCRFRLSFRSGGGEGRLAIMAEGKLSKLVLDGRSIELPWRDPNGYGDPPALGLPLQLEAGAHELIAEVTSTGPGEGPGRAALGAQVRVLAADGAARRIVDGWETEAAGAWTPAVVRTAQPHFPWPPTPARLLRRTFTLSKPPTQARLYVSALGGYRIWLNGRRVGDDELQTEPAAYRRHVPYRAYDVTDLLRDGENVVGLIVGDGTFASYQAPDGRYAYGPGPRRVRLFLESRDSGDRVERVATDGEWRHALSPVLMSEIYAGEDHDLRLWPRGWAEPGFDDSGWSRVWTAPPPEGAPCALLSEPIRETRVLKAASIRAVGPGRHIVDFGQNFAGRVRLRVKGAKGAPVIVRHAEILDGQGALDRRNLRVARAEDRYILNGDDAPETLQPSFTYQGFRYAEIEGVAGLDRDMIDGVVLSSDLPEIGVFRTAEPLVQNLWLNSLWSQRSNFMGIPTDCPQRDERLGWTGDAQVFWETAAFNMDVGGFTRGFARTLRDDQAPNGAYPMWSPSPRGLGWGTTTPTPGWADGGVMLPYVAYLHSGDRSIVDENWTAMSAYVSGVLAENPDGLWRRGRGADFGDWLALDGKWPGDETTPKDLIATAMLARSVDQLAQMAAWTGRSAEAKTWRGQADRIKAAFASAFVRADGTVGNGSHTGYILALRLGLAPQPLRKAAGEHLAADIRRRGTLLSTGFLGTPLALDALADHGHAGLAFDLLLRTEYPSWGYMVRRGATTTWERWNGDTGDVSMNSFNHYALGAICGFLYRRVAGVEPITPGFGAFRVAPLIDPRLRSAGATVDSVRGRIETDWRVTGDKAVLKVRVPANSRAEVVLPTLTRSLGAGDHTLSVPLAK
modifications: Caulobacter vibrioides
B2: 1066 (protein, listed as Caulobacter segnis)
chain: MQIDRRRVMLLGGAGSLVVAQGEAAPLGAAAISDCRVCGLETPLALGAATPRFSWRLSGPRPQAAYRITVARSAADLSAPRDLVWDSGKVASGQSFDIAFGGPAAAPRQVFWWRVEAWDDKGARAVGRPARWETGLLSASDWNAAWLAAEDATAKADRLAGVHWISGPESITDKTSKRCYRTSFEVPAQSDGTLFLAASGLAGVFLNGQELAAGEEEPTRFTTMSPYPLALRQGRNVIAIAQTPSRDLGGPQPMLCALIRLGGSERRLSTAEGWKTTVNAPEGWTLPDFDDGAWPAATTARNRPRGQPLPPGAATHLRRAFRLDKPVAQARLYATALGAYEAWINGAPADERKMAPEPTNLLERVLYQAYDVTAALRAGDNVLGLWVGDGWYASEFSANARFCFGPAPCRAMAQLEILFIDGSRQVIATDDQWRIAPSAILTSEIYDGEVYDARQEIKDWALPGTPQGGWRPAETVEAPNLPIDPQVSPPIRVTQRLKPKAVTSPKPGVHVFDFGQNFAGWAELAISGKAGTRIELLFGEYLKPDGQVDQANLRTAFARDTYVLKGQGREVWSPRFTYHGFRYVEVRGLANAPAADLLTGLVGHNDIRVSGVLRVGAPVVEQFWRNSVWSQRSNFFGLPTDCPQRDERLGWLGDAAVFWPAAAYNMDVEAFTRRFMGDVRRAQRPDGQFPDCIPPFMVPSSRSAPGWSDAGVILPYTAWRQYGDTGVIAENWEAMERYLAFILAKNPDYLWKSSKGNDYGDWLAVDAKYLGEATTPKDLIGTAFWAADAAMMRDMAKAIGKAEAAERYRALFEAIRAAFAGAYVQADGKIGNGSQTSYILAIRFGLLSPEQASEAGRRLAADIAARGGKLSTGFLGTPHILDALADTGHEATAVGLLLQRDYPSWGYMVTKGATTMWERWNSDTGDLSMNSYNHYAFGAIGDFLFRRIAGLAAVEPGFAKVVIAPIFDRRLGSAGADYDSVSGRLSSNWRYEGDTVRLDLSIPPGVQAEVVIPTAARAVRVDGRPVPSARFRVERGQHRVVFTA
B3: 1082 (protein, listed as Streptomyces avermitilis)
chain: MSALRVTSPSVEYVQRPLGLDAAHPRLSWPMASAAPGRRQSAYQVRVASSAAGLSHPDVWDSGKVVSDDSVLVPYAGPPLKPRTRYFWSVRVWDADGGASEWSAPSWWETGLMGASQWSAKWISAPAPLTEAPSLEGSSWIWFPEGEPANSAPAATRWFRRTVDLPDDITGATLAISADNVYAVSVDGAEVARTDLEADNEGWRRPAVIDVLDHVHSGNNTLAVSASNASVGPAGWICVLVLTTASGEKKIFSDASWKSTDHEPADGWREPDFDDSGWPAAKVAAAWGAGPWGRVAPVASAANQLRHEFRLPHKKVSRARLYATALGLYEAHLNGRRVGRDQLAPGWTDYRKRVQYQTYDVTSSVRPGANALAAYVAPGWYAGNVGMFGPHQYGERPALLAQLEVEYADGTSERITSGPDWRAASGPIVSADLLSGETYDARKETAGWTSPGFDDRAWLAVRGADNDVPEQIVAQVDGPVRIAKELPARKVTEPKPGVFVLDLGQNMVGSVRLRVSGDAGTTVRLRHAEVLNPDGTIYTANLRSAAATDTYTLKGQGEETYEPRFTFHGFRYVEVTGFPGKPSTTSVTGRVMHTSAPFTFEFETNVPMLNKLHSNITWGQRGNFLSVPTDTPARDERLGWTGDINVFAPTAAYTMESARFLTKWLVDLRDAQTSDGAFTDVAPAVGNLGNGVAGWGDAGVTVPWALYQAYGDRQVLADALPSVHAWLRYLEKHSDGLLRPADGYGDWLNVSDETPKDVIATAYFAHSADLAARMATELGKDAAPYTDLFTRIRKAFQTAYVASDGKVKGDTQSAYVLTLSMNLVPDALRKAAADRLVALIEAKDWHLSTGFLGTPRLLPVLTDTGHTDVAYRLLHQRTFPSWGYPIDKGSTTMWERWDSIQPDGGFQTPEMNSFNHYAYGSVGEWMYANIAGIAPGRAGYRQVVIRPRPGGEVTSARATFASLHGPVSTRWQQRSGGFVLTCSVPPNTTAEVWIPADHPDRVQHTHGTFVRAEDGCAVFEVGSGSHRFTV

Assay: Experiment 6-1: screening of rhamnosidases for derhamnosylation of saponins in treated bark extract (2%), QS-17 2296 to QS-18 2150 (PAR %)
Format: biochemical, Quillaja saponaria
Settings: TBE 2%, pH 7.5, 30 degC, 18 h; TIC peak area ratio percent of rhamnosylated starting saponin to derhamnosylated product, LCMS/MS; negative controls 4.876, 5.225
With B1 the “QS-17 (PAR %)” value was 1.512%.
With B2 the “QS-17 (PAR %)” value was 2.194%.
With B3 the “QS-17 (PAR %)” value was 3.122%.

Assay: Experiment 6-1: screening of rhamnosidases for derhamnosylation of saponins in treated bark extract (2%), desglucosyl-QS-17 2134 to QS-21 1988 (PAR %)
Format: biochemical, Quillaja saponaria
Settings: TBE 2%, pH 7.5, 30 degC, 18 h; TIC peak area ratio percent, LCMS/MS; negative controls 2.719, 2.158
For B1, the “Peak75 (PAR %)” value was 2.651%.
In the case of B2, the “Peak75 (PAR %)” value is reported as 1.220%.
For B3, the “Peak75 (PAR %)” value was 1.614%.

Assay: Experiment 6-1: screening of rhamnosidases for derhamnosylation of saponins in treated bark extract (2%), QS-17 2310 to QS-18 2164 (PAR %)
Format: biochemical, Quillaja saponaria
Settings: TBE 2%, pH 7.5, 30 degC, 18 h; TIC peak area ratio percent, LCMS/MS; negative controls 3.061, 2.429
With B1 the “Peak57 (PAR %)” value was 0.547%.
With B2 the “Peak57 (PAR %)” value was 0.896%.
For B3, the “Peak57 (PAR %)” value was 0.000%.

Assay: Experiment 6-2: screening of rhamnosidases for derhamnosylation of saponins in treated bark extract (25%), relative % of Left, Middle and Right Peak by UV HPLC
Format: biochemical, Quillaja saponaria
Settings: TBE 25%, pH 7.4, 19.5 h, mainly QS-17 family, negative control 24%
With B1 the “Left Peak” value was 22%.
With B2 the “Left Peak” value was 20%.
With B3 the “Left Peak” value was 19%.

Same assay, conditions: TBE 25%, pH 7.4, 19.5 h, mainly QS-18 and desglucosyl-QS-17 family, negative control 50%
For B1, the “Middle Peak” value was 52%.
For B2, the “Middle Peak” value was 53%.
In the case of B3, the “Middle Peak” value is reported as 55%.

Same assay, conditions: TBE 25%, pH 7.4, 19.5 h, mainly QS-21 family, negative control 26%
For B1, the “Right Peak” value was 26%.
In the case of B2, the “Right Peak” value is reported as 27%.
With B3 the “Right Peak” value was 26%.

Assay: Experiment 6-3: screening of rhamnosidases for derhamnosylation of saponins in crude bark extract (80%), relative % of Left, Middle and Right Peak by UV HPLC
Format: biochemical, Quillaja saponaria
Settings: CBE 80%, pH 7.4, 30 degC, 19.5 h, mainly QS-17 family, negative control 27%
In short: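 Clarified lysates of expressed rhamnosidase variants were incubated with crude bark extract (pH 7.4, final 80%) at 30 degC with shaking for 19.5 h, then quenched with MeCN+2% AcOH. UV HPLC gave relative % of Left (QS-17), Middle (QS-18/desglucosyl-QS-17) and Right (QS-21) peaks.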
In the case of B1, the “Left Peak” value is reported as 26%.
In the case of B2, the “Left Peak” value is reported as 26%.
In the case of B3, the “Left Peak” value is reported as 26%.

Same assay, conditions: CBE 80%, pH 7.4, 30 degC, 19.5 h, mainly QS-18 and desglucosyl-QS-17 family, negative control 48%
With B1 the “Middle Peak” value was 48%.
With B2 the “Middle Peak” value was 48%.
With B3 the “Middle Peak” value was 47%.

Same assay, conditions: CBE 80%, pH 7.4, 30 degC, 19.5 h, mainly QS-21 family, negative control 26%
With B1 the “Right Peak” value was 26%.
With B2 the “Right Peak” value was 27%.
For B3, the “Right Peak” value was 27%.

Assay: Experiment 6-1: specificity of rhamnosidases towards other rhamnose residues (C3 saccharide rhamnose, C28 saccharide rhamnose)
Format: biochemical, Quillaja saponaria
Settings: TBE 2%, pH 7.5, 30 degC, 18 h; LCMS/MS; negative controls 0.18, 0.17
With B1 the “ratio PP/QS-21” value was 0.17.
With B2 the “ratio PP/QS-21” value was 0.18.
In the case of B3, the “ratio PP/QS-21” value is reported as 0.21.
